Key:
[1] = system: LEF-4 (Autographa californica nuclear polyhedrosis virus); conditions: 5'-triphosphate; RNA 5'-triphosphatase turnover, 0.3 mM MnCl2, 30 C
[2] = target: baculovirus RNA polymerase complex (LEF-8/LEF-9/LEF-4/p47) (Autographa californica nuclear polyhedrosis virus) (UniProt P41452+P41465+P41477+P34051); conditions: 5'-triphosphate; RNA 5'-triphosphatase turnover, 0.3 mM MnCl2, 30 C
[3] = system: LEF-4 wild type (E. coli) (Autographa californica nuclear polyhedrosis virus); conditions: 5'-triphosphate; RNA triphosphatase, 1 uM RNA
[4] = system: LEF-4 E9/11A E9A,E11A (Autographa californica nuclear polyhedrosis virus); conditions: 5'-triphosphate; RNA triphosphatase reduced 100-fold
[5] = system: LEF-4 R51A R51A (Autographa californica nuclear polyhedrosis virus); conditions: 5'-triphosphate; RNA triphosphatase
[6] = system: LEF-4 L105F L105F (Autographa californica nuclear polyhedrosis virus); conditions: 5'-triphosphate; RNA triphosphatase at nonpermissive temperature (33 C); equal to wild type at 25 C

Chain of UniProt P41452 (P41452 whole entry, chain 1 of 4): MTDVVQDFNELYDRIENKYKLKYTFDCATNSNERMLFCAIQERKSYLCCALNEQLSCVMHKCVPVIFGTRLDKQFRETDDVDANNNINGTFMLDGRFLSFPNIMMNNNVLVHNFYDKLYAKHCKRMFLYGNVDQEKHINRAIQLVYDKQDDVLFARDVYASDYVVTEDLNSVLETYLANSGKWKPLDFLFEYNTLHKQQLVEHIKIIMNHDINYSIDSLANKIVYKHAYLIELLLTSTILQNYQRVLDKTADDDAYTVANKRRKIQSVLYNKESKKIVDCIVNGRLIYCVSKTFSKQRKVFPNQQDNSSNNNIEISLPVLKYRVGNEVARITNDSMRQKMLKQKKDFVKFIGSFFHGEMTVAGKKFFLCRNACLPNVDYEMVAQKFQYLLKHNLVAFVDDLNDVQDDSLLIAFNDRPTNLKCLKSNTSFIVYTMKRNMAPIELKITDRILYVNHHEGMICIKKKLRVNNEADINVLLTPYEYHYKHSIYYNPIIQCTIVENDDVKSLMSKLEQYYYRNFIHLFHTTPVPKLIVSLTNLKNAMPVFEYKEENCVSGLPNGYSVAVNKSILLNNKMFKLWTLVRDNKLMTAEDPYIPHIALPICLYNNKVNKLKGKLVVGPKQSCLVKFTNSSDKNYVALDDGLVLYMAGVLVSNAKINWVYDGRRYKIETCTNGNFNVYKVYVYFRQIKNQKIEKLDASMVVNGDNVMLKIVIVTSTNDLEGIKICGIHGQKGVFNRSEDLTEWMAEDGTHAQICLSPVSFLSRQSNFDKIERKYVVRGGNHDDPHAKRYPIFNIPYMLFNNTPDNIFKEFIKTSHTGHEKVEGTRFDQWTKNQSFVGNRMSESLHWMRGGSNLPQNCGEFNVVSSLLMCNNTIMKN
Chain of UniProt P41452 (P41465 whole entry, chain 2 of 4): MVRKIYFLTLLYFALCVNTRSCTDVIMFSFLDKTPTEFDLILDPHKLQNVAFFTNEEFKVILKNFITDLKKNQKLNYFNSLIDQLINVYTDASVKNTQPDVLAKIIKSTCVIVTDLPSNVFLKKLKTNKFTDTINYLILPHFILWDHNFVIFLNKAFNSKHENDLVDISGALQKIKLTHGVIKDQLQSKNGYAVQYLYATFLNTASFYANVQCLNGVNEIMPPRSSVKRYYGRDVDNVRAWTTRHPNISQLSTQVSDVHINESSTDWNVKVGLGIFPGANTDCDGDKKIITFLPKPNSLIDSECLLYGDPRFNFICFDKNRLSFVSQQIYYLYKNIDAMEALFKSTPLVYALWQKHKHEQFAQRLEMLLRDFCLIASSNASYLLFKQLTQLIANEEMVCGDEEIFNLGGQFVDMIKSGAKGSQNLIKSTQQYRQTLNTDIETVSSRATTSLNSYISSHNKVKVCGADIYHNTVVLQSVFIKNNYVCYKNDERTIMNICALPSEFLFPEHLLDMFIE
Chain of UniProt P41452 (P41477 whole entry, chain 3 of 4): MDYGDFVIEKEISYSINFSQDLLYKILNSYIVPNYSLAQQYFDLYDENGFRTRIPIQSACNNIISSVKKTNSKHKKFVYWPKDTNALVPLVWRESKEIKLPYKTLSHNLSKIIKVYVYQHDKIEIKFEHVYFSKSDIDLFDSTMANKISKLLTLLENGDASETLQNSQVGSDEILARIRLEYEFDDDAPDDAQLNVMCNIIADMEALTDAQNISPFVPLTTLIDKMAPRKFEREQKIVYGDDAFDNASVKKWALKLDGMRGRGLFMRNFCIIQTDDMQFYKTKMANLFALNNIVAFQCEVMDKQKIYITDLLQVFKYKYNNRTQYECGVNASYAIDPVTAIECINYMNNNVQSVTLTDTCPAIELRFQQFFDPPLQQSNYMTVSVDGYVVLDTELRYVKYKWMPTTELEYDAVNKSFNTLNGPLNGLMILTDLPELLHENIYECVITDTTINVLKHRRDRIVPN
Chain of UniProt P41452 (P34051 whole entry, chain 4 of 4): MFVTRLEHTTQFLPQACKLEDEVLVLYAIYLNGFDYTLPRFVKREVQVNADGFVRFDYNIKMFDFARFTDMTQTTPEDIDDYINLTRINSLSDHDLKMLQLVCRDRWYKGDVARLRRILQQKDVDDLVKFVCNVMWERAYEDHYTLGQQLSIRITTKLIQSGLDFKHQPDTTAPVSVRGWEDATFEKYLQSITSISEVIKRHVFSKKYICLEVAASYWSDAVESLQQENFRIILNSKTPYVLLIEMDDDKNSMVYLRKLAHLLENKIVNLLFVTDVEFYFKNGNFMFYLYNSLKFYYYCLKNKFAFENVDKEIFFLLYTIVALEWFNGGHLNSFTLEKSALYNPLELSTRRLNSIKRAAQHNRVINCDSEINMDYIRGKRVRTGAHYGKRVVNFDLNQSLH

“gamma-32P 5'-triphosphate 150-nt T3 transcript of pBluescript KS” was tested, and the activity [1] was 0.31 fmol/s/fmol, the activity [2] was 0.16 fmol/s/fmol and the activity (pmol Pi/pmol per 15 min) [3] was 210. The binding signal (fraction of wild type) [4] was 0.01, the RNA triphosphatase activity (% of wild type) [5] was 2.5 and the binding signal (% of wild type) [6] was 74.
